Results from the RNAGym collection of RNA variant scans (doi:10.7554/elife.90254).

B1: LINE1-mini (parent)
chain: GGCAGAGCUCAACACAGCGUGGCAAAGUGGCUGUGGCUAGACUGCC

Variants of: B1
Test: self-cleavage, relative activity (ratio to wild type); higher = more cleavage; in vitro, sequencing; the parent is a self-cleaving ribozyme

Variant | self-cleavage
GGCAGAGCUGAACACAACGUGGCAAAGUGGCUGUGGCUAGACUGCC [C10G G17A] | 0.16
GGCAGAGCUGAACACAUCGUGGCAAAGUGGCUGUGGCUAGACUGCC [C10G G17U] | 0.07
GGCAGAGCUGAACACACCGUGGCAAAGUGGCUGUGGCUAGACUGCC [C10G G17C] | 0.23
GGCAGAGCUGAACACAGCGUGGCAAAGUGGCUGUGGCUAGAGUGCC [C10G C42G] | 0.03
GGCAGAGCUGAACACAGCGUGGCAAAGUGGCUGUGGCUAGAUUGCC [C10G C42U] | 0.03
GGCAGAGCUGAACACAGCGUGGCAAAGUGGCUGUGGCUAGAAUGCC [C10G C42A] | 0.03
GGCAGAGCUGAACACAGCGUGGCAAACUGGCUGUGGCUAGACUGCC [C10G G27C] | 0.09
GGCAGAGCUGAACACAGCGUGGCAAAUUGGCUGUGGCUAGACUGCC [C10G G27U] | 0.08
GGCAGAGCUGAACACAGCGUGGCAAAAUGGCUGUGGCUAGACUGCC [C10G G27A] | 0.14
GGCAGAGCUGAACACAGCGUGGCAAAGUGGCGGUGGCUAGACUGCC [C10G U32G] | 0.02
GGCAGAGCUGAACACAGCGUGGCAAAGUGGCCGUGGCUAGACUGCC [C10G U32C] | 0.03
GGCAGAGCUGAACACAGCGUGGCAAAGUGGCAGUGGCUAGACUGCC [C10G U32A] | 0.02
GGCAGAGCUGAACACAGCGUGACAAAGUGGCUGUGGCUAGACUGCC [C10G G22A] | 0.13
GGCAGAGCUGAACACAGCGUGCCAAAGUGGCUGUGGCUAGACUGCC [C10G G22C] | 0.12
GGCAGAGCUGAACACAGCGUGUCAAAGUGGCUGUGGCUAGACUGCC [C10G G22U] | 0.11
GGCAGAGCUGAACACAGCGUGGCAAAGUGGCUGUGGCUAGACUGAC [C10G C45A] | 0.07
GGCAGAGCUGAACACAGCGUGGCAAAGUGGCUGUGGCUAGACUGGC [C10G C45G] | 0.02
GGCAGAGCUGAACACAGCGUGGCAAAGUGGCUGUGGCUAGACUGUC [C10G C45U] | 0.14
GGCAGAGCUGAACACAGCGUGGCAAAGUGGCUGUUGCUAGACUGCC [C10G G35U] | 0.04

Variant | self-cleavage
GGCAGAGCUGAACACAGCGUGGCAAAGUGGCUGUAGCUAGACUGCC [C10G G35A] | 0.03
GGCAGAGCUGAACACAGCGUGGCAAAGUGGCUGUCGCUAGACUGCC [C10G G35C] | 0.02
GGCAGAGCUGAACACUGCGUGGCAAAGUGGCUGUGGCUAGACUGCC [C10G A16U] | 0.06
GGCAGAGCUGAACACCGCGUGGCAAAGUGGCUGUGGCUAGACUGCC [C10G A16C] | 0.02
GGCAGAGCUGAACACGGCGUGGCAAAGUGGCUGUGGCUAGACUGCC [C10G A16G] | 0.06
GGCAGAGCUGAACACAGCGUGGCAAAGUGGCUGUGGCAAGACUGCC [C10G U38A] | 0.06
GGCAGAGCUGAACACAGCGUGGCAAAGUGGCUGUGGCCAGACUGCC [C10G U38C] | 0.02
GGCAGAGCUGAACACAGCGUGGCAAAGUGGCUGUGGCGAGACUGCC [C10G U38G] | 0.03
GGCAGAGCUGAACACAGGGUGGCAAAGUGGCUGUGGCUAGACUGCC [C10G C18G] | 0.04
GGCAGAGCUGAACACAGUGUGGCAAAGUGGCUGUGGCUAGACUGCC [C10G C18U] | 0.09
GGCAGAGCUGAACACAGAGUGGCAAAGUGGCUGUGGCUAGACUGCC [C10G C18A] | 0.08
GGCAGAGCUGAACACAGCGAGGCAAAGUGGCUGUGGCUAGACUGCC [C10G U20A] | 0.06
GGCAGAGCUGAACACAGCGCGGCAAAGUGGCUGUGGCUAGACUGCC [C10G U20C] | 0.07
GGCAGAGCUGAACACAGCGGGGCAAAGUGGCUGUGGCUAGACUGCC [C10G U20G] | 0.05
GGCAGAGCUGAACACAGCGUGGCAAAGUGGCUGUGGCUAGACUACC [C10G G44A] | 0.05
GGCAGAGCUGAACACAGCGUGGCAAAGUGGCUGUGGCUAGACUCCC [C10G G44C] | 0.06
GGCAGAGCUGAACACAGCGUGGCAAAGUGGCUGUGGCUAGACUUCC [C10G G44U] | 0.04
GGCAGAGCUGAAGACAGCGUGGCAAAGUGGCUGUGGCUAGACUGCC [C10G C13G] | 0.08
GGCAGAGCUGAAUACAGCGUGGCAAAGUGGCUGUGGCUAGACUGCC [C10G C13U] | 0.04

Variant | self-cleavage
GGCAGAGCUGAAAACAGCGUGGCAAAGUGGCUGUGGCUAGACUGCC [C10G C13A] | 0.03
GGCAGAGCUGAACACAGCGUGGCAAAGAGGCUGUGGCUAGACUGCC [C10G U28A] | 0.11
GGCAGAGCUGAACACAGCGUGGCAAAGGGGCUGUGGCUAGACUGCC [C10G U28G] | 0.08
GGCAGAGCUGAACACAGCGUGGCAAAGCGGCUGUGGCUAGACUGCC [C10G U28C] | 0.12
GGCAGAGCUGAACACAGCGUGGCAAAGUGCCUGUGGCUAGACUGCC [C10G G30C] | 0.2
GGCAGAGCUGAACACAGCGUGGCAAAGUGUCUGUGGCUAGACUGCC [C10G G30U] | 0.22
GGCAGAGCUGAACACAGCGUGGCAAAGUGACUGUGGCUAGACUGCC [C10G G30A] | 0.21
GGCAGAGCUGAACACAGCGUGGCAAAGUGGCUAUGGCUAGACUGCC [C10G G33A] | 0.03
GGCAGAGCUGAACACAGCGUGGCAAAGUGGCUCUGGCUAGACUGCC [C10G G33C] | 0.02
GGCAGAGCUGAACACAGCGUGGCAAAGUGGCUUUGGCUAGACUGCC [C10G G33U] | 0.02
GGCAGAGCUUAACACAGCGUGGCAAAGUGGCUGUGGCUAGACUGCC [C10U] | 0.34
GGCAGAGCUGAACACAGCGUGGCAAAGUAGCUGUGGCUAGACUGCC [C10G G29A] | 0.1
GGCAGAGCUGAACACAGCGUGGCAAAGUUGCUGUGGCUAGACUGCC [C10G G29U] | 0.08
GGCAGAGCUGAACACAGCGUGGCAAAGUCGCUGUGGCUAGACUGCC [C10G G29C] | 0.04
GGCAGAGCUGAGCACAGCGUGGCAAAGUGGCUGUGGCUAGACUGCC [C10G A12G] | 0.03
GGCAGAGCUGAUCACAGCGUGGCAAAGUGGCUGUGGCUAGACUGCC [C10G A12U] | 0.03
GGCAGAGCUGACCACAGCGUGGCAAAGUGGCUGUGGCUAGACUGCC [C10G A12C] | 0.03
GGCAGAGCUGAACACAGCGUGGCAUAGUGGCUGUGGCUAGACUGCC [C10G A25U] | 0.1
